Results: patent US8058396B2, “Cystatin C as an antagonist of TGF-β and methods related thereto” (National Jewish Health, priority 2003, dated 2011)

B1: CystC: full-length human Cystatin C (SEQ ID NO:2), C-terminally Myc- and (His)6-tagged, retrovirally expressed and secreted by the cells (protein, listed as Homo sapiens)
chain: MAGPLRAPLLLLAILAVALAVSPAAGSSPGKPPRLVGGPMDASVEEEGVRRALDFAVGEYNKASNDMYHSRALQVVRARKQIVAGVNYFLDVELGRTTCTKTQPNLDNCPFHDQPHLKRKAFCSFQIYAVPWQGTMTLSKSTCQDA
modifications: C-terminal Myc and His6 tags
B2: Δ14CystC: human CystC with deletion of positions 80 to 93 (conserved cysteine proteinase inhibitor motif), retrovirally expressed and secreted (protein)
chain: MAGPLRAPLLLLAILAVALAVSPAAGSSPGKPPRLVGGPMDASVEEEGVRRALDFAVGEYNKASNDMYHSRALQVVRARLGRTTCTKTQPNLDNCPFHDQPHLKRKAFCSFQIYAVPWQGTMTLSKSTCQDA
modifications: left off: small tags and cut ends

What was measured:
NMuMG cells = test: NMuMG cell invasion through Matrigel matrices; type: cell-based, murine; details: expression in NMuMG cells, 48 hours, p<0.05; for TGF-β1-enhanced NMuMG cell invasion: TGF-β1 5 ng/ml
Procedure: In another experiment, NMuMG cells were infected with ecotropic retrovirus encoding either GFP (i.e., control), CystC, or Δ14CystC, and subsequently were isolated by FACS-sorting for GFP expression to yield stable polyclonal populations of control, CystC, and Δ14CystC-expressing cells. The expression and secretion of recombinant CystC proteins by infected NMuMG and NRK cells was monitored by immunoblotting conditioned-media with anti-CystC antibodies. The same cells were incubated in the absence or presence of TGF-β1 (5 ng/ml) for 8 hours, whereupon alterations in actin cytoskeletal architecture was visualized by direct rhodamine-phalloidin immunofluorescence. Next, the control, CystC-, and Δ14CystC-expressing NMuMG cells were incubated in the absence or presence of TGF-β1 (5 ng/ml) for 36 hours, whereupon E-cadherin expression was monitored by immunoblotting with anti-E-Cadherin antibodies. Finally, control, CystC-, and Δ14CystC-expressing NMuMG cells were allowed to invade through Matrigel matrices in the absence or presence of TGF-β1 (5 ng/ml) for 48 hours.

[1] = test system: NMuMG mammary epithelial cells; test: TGF-β-stimulated actin cytoskeletal reorganization (EMT) in NMuMG cells, rhodamine-phalloidin immunofluorescence; type: cell-based, murine; details: overexpression in NMuMG cells; TGF-β1 5 ng/ml, 8 hours
Procedure: The ability of TGF-β to alter actin cytoskeletal architecture and E-cadherin expression was monitored essentially as described (Piek et al., 1999). Briefly, control-, CystC-, or Δ14CystC-expressing NMuMG cells were allowed to adhere overnight to glass coverslips in 24-well plates (50,000 cells/well). The cells were stimulated the following day with TGF-β1 (5 ng/ml) for 0-36 hours at 37° C. In some experiments, control NMuMG cells were stimulated with TGF-β1 in the absence or presence of 10 μg/ml of recombinant GST, GST-CystC, or GST-Δ14CystC. Upon completion of agonist stimulation, the cells were washed in ice-cold PBS and immediately fixed in 3.7% formaldehyde. After extensive washing in PBS, the cells were blocked in PBS supplemented with 1.5% FBS, followed by incubation with rhodamine-phalloidin (0.25 μM). […]
To test this hypothesis, the inventor first examined whether CystC and a CystC mutant impaired in its ability to inhibit cathepsin protease activity (i.e., Δ14CystC) could antagonize TGF-β stimulation of EMT in MECs. […] TGF-β stimulation of EMT is studied routinely in murine NMuMG MECs, which readily undergo EMT when treated with TGF-β (Piek et al., 1999; Miettinen et al., 1994; Gotzmann et al., 2004). […] E-cadherin expression was monitored by indirect immunofluorescence with anti-E-cadherin antibodies.
In another experiment, NMuMG cells were infected with ecotropic retrovirus encoding either GFP (i.e., control), CystC, or Δ14CystC, and subsequently were isolated by FACS-sorting for GFP expression to yield stable polyclonal populations of control, CystC, and Δ14CystC-expressing cells. The expression and secretion of recombinant CystC proteins by infected NMuMG and NRK cells was monitored by immunoblotting conditioned-media with anti-CystC antibodies. […] Next, the control, CystC-, and Δ14CystC-expressing NMuMG cells were incubated in the absence or presence of TGF-β1 (5 ng/ml) for 36 hours, whereupon E-cadherin expression was monitored by immunoblotting with anti-E-Cadherin antibodies. […]

TGF-β signaling = test: p3TP-luciferase reporter gene assay in HT1080 cells; type: cell-based, human; details: expression in HT1080 cells; TGF-β1 0-5 ng/ml
Procedure: Analysis of luciferase activity driven by the synthetic p3TP reporter ((26); generously provided by Dr. Joan Massague, Sloan Kettering) was performed as described previously (42). Briefly, control, CystC-, or Δ14CystC-expressing 3T3-L1 or HT1080 cells were cultured onto 24-well plates at a density of 45,000 cells/well and allowed to adhere overnight. The cells were transiently transfected the following morning by overnight exposure to LT1 liposomes (Mirus) containing 300 ng/well p3TP-luciferase and 100 ng/well of pCMV-β-gal. Afterward, the cells were washed twice with PBS and stimulated overnight in serum-free media with increasing concentrations of TGF-β1 as indicated. The following morning, luciferase and β-gal activities contained in detergent-solubilized cell extracts were determined.
The inventor therefore hypothesized that CystC expression might impact TGF-β signaling via a cathepsin B-dependent mechanism. To test this hypothesis, changes in luciferase expression driven by the synthetic p3TP-luciferase reporter gene (26) were measured in control- and CystC-expressing HT1080 cells. Briefly, GFP-, CystC-, or Δ14CystC-expressing HT0180 cells were transiently transfected with p3TP-luciferase and pCMV-β-gal. The transfectants were stimulated with increasing concentrations of TGF-β1 (0-5 ng/ml) as indicated, and subsequently processed to measure luciferase and β-gal activities. […]

Molecule	tonic NMuMG cell invasion (NMuMG cells)	TGF-β1-enhanced NMuMG cell invasion (NMuMG cells)	actin cytoskeletal reorganization stimulated by TGF-β [1]	TGF-β-stimulated luciferase activity driven by the p3TP promoter (TGF-β signaling)
B1	significantly inhibited	inhibited significantly	prevented	significantly inhibited
B2	–	inhibited significantly	prevented	equally effective as CystC
